In the series the target is T1, GkDnaC R117A (Geobacillus kaustophilus HTA426, UniProt Q5KU75 1-454, R117A).
T1 sequence: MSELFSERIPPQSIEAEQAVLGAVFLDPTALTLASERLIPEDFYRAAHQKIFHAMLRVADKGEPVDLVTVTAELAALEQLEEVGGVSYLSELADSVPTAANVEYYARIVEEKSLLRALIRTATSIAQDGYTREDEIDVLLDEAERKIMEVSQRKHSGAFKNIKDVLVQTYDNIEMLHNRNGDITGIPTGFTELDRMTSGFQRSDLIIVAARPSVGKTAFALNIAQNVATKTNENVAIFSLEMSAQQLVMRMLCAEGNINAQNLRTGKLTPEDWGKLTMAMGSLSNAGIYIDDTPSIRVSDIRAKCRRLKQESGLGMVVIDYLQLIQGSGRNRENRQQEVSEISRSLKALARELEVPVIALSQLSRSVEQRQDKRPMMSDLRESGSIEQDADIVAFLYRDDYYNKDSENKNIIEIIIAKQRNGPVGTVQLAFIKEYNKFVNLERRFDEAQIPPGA
Description: SPR. (Surface plasmon resonance follows binding to a sensor surface in real time, without labels.)

We go through one molecule from article PMC2647316 (Nucleic Acids Research, 2008).

A word on the Kd: it is a measure of binding affinity in units of concentration. A high value points to lower affinity. TTTTTTTTTTTTTTTTTTTTTTTTTTTTTT (ssDNA) [5'Bio-(dT)30] registered a Kd of 1470 nM.
